Source: patent US10654917B2, “Antibody molecules and peptide delivery systems for use in alzheimer's disease and related disorders” (TECHNOPHAGE, INVESTIGAÇĀO E DESENVOLVIMENTO EM …, priority 2015, dated 2020)
Where “and” joins values, the source holds several entries; their conditions need not be identical. Identical values can stand only once.

How the values were obtained:
[1] = Stability in blood and urine after injection, HPLC; assay type: in vivo, mice; settings: 5 and 60 minutes following injection
Description: Finally, stability of the peptides was determined. Urine and blood were taken from the animals after death, filtered, and analyzed by RT-HPLC. HPLC analysis was conducted to assess the stability of pepH1 and pepH3 peptides in blood and urine, 5 and 60 minutes post-administration, compared to the respective original preparations.
FIGS. 28A-28D show the profile of pepH1 and pepH3 each in its original preparation, prior to injection into the animals, and then after 5 and 60 minutes following injection in the blood and urine.

[2] = Features of peptides: isoelectric point, charge; assay type: physicochemical; settings: original peptide
Text: Table 7 lists each peptide's name, isoelectric point (PI), charge (number of positive residues), calculated mass (in Da), and ion found; as well as the name, calculated mass, and found ion for the corresponding conjugate; and also retention times in HPLC and the partition coefficient (log Po/w). These values allowed the determination of the hydrophilic nature of peptides, where pepH1 and pepH4 were identified as the most hydrophilic peptides.

[3] = Biodistribution of technetium-labelled peptides; assay type: in vivo, CD1 mice; settings: for excreted: after 60 min; for brain uptake: after 2 min; for brain washout: mouse, in vivo
Description: To evaluate the capacity to cross the BBB in vivo, the selected peptides, pepH1 and pepH3, were analyzed for biodistribution in CD1 mice. The peptides were labelled with technetium at a final concentration of 8.5×10^−5 M and diluted in PBS. CD1 mice were injected (iv injection, tail vein). The mice were sacrificed by cervical dislocation after 5 and 60 minutes of incubation. The tissues of interest were dissected and washed to remove excess blood, weighed, and measured for radioactivity. Technetium radioactivity of the different peptides was measured for different organs.
Initial results are presented in Table 11, where “% I.A. refers to the “% injected activity”, that is, the amount of radioactivity measured in a given organ compared to the total originally injected.
The biodistribution studies were repeated, using higher doses of each peptide, specifically, a one hundred fold increase, as well as using PepH2 as a negative control, and allowing incubation for 2 minutes and 60 minutes. Tissue biodistribution profile in percentage of injected radiopeptide activity per gram of tissue/organ was measured and results are presented in Table 12.

[4] = tested on: in vitro model of the BBB (bEnd3 cells); assay: Transmigration of radiolabelled peptides across in vitro BBB model; assay type: in vitro ADME; settings: for overpass in the control (no cells): 5 h
Description: Using the same in vitro model of the BBB described above, peptides labelled with technetium and gallium were tested for the ability to cross endothelial barrier. For each peptide, bEnd3 cells cultured on “tissue culture inserts” were incubated with 5 ρCimL^−1-labelled peptide for different incubation times: 15 min, 5 h and 24 h. As a control, the model without cells was used (Control no cells) or (Filters) and compared to models with cells (BBB) or (Cells).
FIGS. 21A-21F show the percent activity of the radioisotope technetium-labelled peptides at the apex and base after 5 hours of incubation with the in vitro model described above, using the BBB-model or no cells (as a control); and values were obtained from two independent assays. […] Moreover, the results indicated promising candidates. Specifically, for each of pepH1 and pepH3, there was an overpass of 50% in the control, compared with only 20% in the presence of a cell barrier. The translocation of pepH2 was not observed in either the control nor in the BBB model.
Results for the incubations of 15 minutes, 5 hours, and 24 hours are shown together in FIGS. 22A-22F. That is, FIGS. 22A-22F show the percent activity of the radioisotope technetium-labelled peptides at the apex and base after 15 minutes, 5 hours, and 24 hours of incubation with the in vitro model described above, using the BBB-model or no cells (as a control); and values were obtained from two independent assays. Differences again were observed, confirming the integrity of the barrier, as well as identifying peptides that crossed the barrier. […] PepR′ thus was excluded from further tests.
(§1) Table 9 summarizes results regarding uptake (internalization) and cellular interaction, as well as transmigration across an in vitro model for BBB, for peptides labelled with technetium and gallium, after 15 minutes, 5 hours, and 24-hours of incubation, based on percent recovery of radiopeptide. The Table lists the peptides, providing each peptide's name, % BBB transmigration, % cellular interaction, and % internalized, each after […], 5 hours, and 24 hours of incubation.

[5] = tested on: bEnd3 cells; assay: Uptake test: cellular interaction (acid wash) and internalization (lysate); assay type: cell-based
Description: In addition to testing models of BBB, an uptake test was performed to determine the internalizing ability of the candidate peptides. BEnd3 cells were cultured in 24 well plates. At each time point, the medium containing the peptide, which had not interacted with the cells, was collected. In the next step, the cells were washed with an acidic buffer that releases peptides more strongly bound to the cell membrane (sample acid wash). Finally, the cells were lysed to release internalized peptides and to quantify the activity inside the cells. Results are showing in FIGS. 23A-23E.
FIGS. 23A-23E show percent activity of the radioisotope technetium-labelled peptides in the media, wash buffer (acid wash) and lysate, after 15 minutes, 5 hours, and 24 hours of incubation with bEnd3 cells; and values were obtained from two independent assays. […] PepM′, as well as showing high transmigration (about 50%), also appeared to become internalized and accumulated within the cells (about 13% of radioactivity in the lysate).
as §1

[6] = Partition coefficient Kp by intrinsic trp fluorescence; assay type: physicochemical
Description: For the pepH3, the “partition coefficient” or “affinity constant” also was determined, since this peptide intrinsically presents a tryptophan and, thus, successful administrations of the lipid compositions allowed determination of pepH3's affinity constant.
PepH2 and pepH3 are the most hydrophobic peptides (Po/w). In addition, pepH2 interacts with various lipid compositions of membrane models, while pepH3 only interacts with membranes rich in PS (a negatively charged phospholipid).

[7] = target: T1, BAP42 (Homo sapiens, UniProt P05067); assay: Thioflavin T assay of BAP42 aggregation inhibition; assay type: biochemical; settings: proportions 1:5 and 1:20 sdAb:BAP42
T1 construct: “beta-amyloid peptide 42”, or “beta-amyloid peptide 1-42”
T1 sequence (P05067 672-713 limits assumed): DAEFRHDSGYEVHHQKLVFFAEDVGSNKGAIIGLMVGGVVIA
Description: Once purified and verified in recognizing BAP42 oligomers, anti-oligomer antibodies were purified were tested for their ability to inhibit aggregation of the peptide to fibrillar forms. This assay was performed using the thioflavin T (ThT), which, as discussed above, is a probe that recognizes rich “beta-sheet” secondary structures, the structure indeed characteristic of fibrillar BAP42. Accordingly, the greater aggregation inhibition by a candidate anti-oligomer sdAb, the less fibrils formed, and thus the smaller the signal emitted by ThT during the assay. Other selected anti-oligomer sdAbs show similar aggregation inhibition.
Anti-oligomers also were tested for their ability to inhibit aggregation of BAP42. This assay was performed using Thioflavin T (ThT), which, as described above, recognizes beta-sheet rich structures, characteristic of fibrillar form of BAP42, so that the ability of sdAbs to inhibit aggregation can be assessed. Specifically, the more aggregation is inhibited, the smaller the signal emitted by ThT. Two proportions were tested, namely, 1:5 (one molecule for sdAb for every 5 BAP42 molecules) and 1:20 (one molecule for sdAb for every 20 BAP42 molecules).

[8] = 140 μg (pepH1, pepH3) or 80 μg (pepH2)

Molecule: VQQLTKRFSL (Dengue virus 2; /note=“#PepH1”)
- stability in blood and urine [1]: stable in the blood and urine
- Charge (number of positive residues) [2]: 2
- PI (isoelectric point) [2]: 11
- excreted [3, 8]: 32.7%
- brain uptake [3]: rapid brain uptake
- brain washout [3]: rapid brain washout
- BBB transmigration ([4]; 99mTc, 0.25 hours): 3.75 ± 0.5%
- overpass in the control (no cells) ([4]; 99mTc): 50%
- BBB transmigration ([4]; 99mTc, 5 hours): 24.3 ± 0.4%
- BBB transmigration ([4]; 99mTc, 5 hours, listed as pepH1): 20%
- BBB transmigration ([4]; 99mTc, 24 hours): 73.83 ± 9.4%
- BBB transmigration ([4]; 99mTc, 24 hours, listed as pepH1): about 70%
- BBB transmigration / translocation (summary of Table 9) ([4]; 24 h, both types of markings): about 70%
- BBB transmigration ([4]; GaCl3, 0.25 hours): 1.13 ± 0.2%
- BBB transmigration ([4]; GaCl3, 5 hours): 21.56 ± 0.4%
- BBB transmigration ([4]; GaCl3, 24 hours): 71.47 ± 3.7%
- where the radiopeptide is found in the uptake test (media, acid wash, lysate) ([5]; 99mTc): mainly remained in the incubation medium
- Cellular interaction ([5]; 99mTc, 0.25 hours): 0.63 ± 0.1%
- Internalization ([5]; 99mTc, 0.25 hours): 0.16 ± 0.0%
- Cellular interaction ([5]; 99mTc, 5 hours): 0.30 ± 0.0%
- Internalization ([5]; 99mTc, 5 hours): 0.10 ± 0.0%
- Cellular interaction ([5]; 99mTc, 24 hours): 0.38 ± 0.1%
- Internalization ([5]; 99mTc, 24 hours): 0.12 ± 0.0%
- Cellular interaction ([5]; GaCl3, 0.25 hours): 0.25 ± 0.0%
- Internalization ([5]; GaCl3, 0.25 hours): 0.00 ± 0.0%
- Cellular interaction ([5]; GaCl3, 5 hours): 0.80 ± 0.3%
- Internalization ([5]; GaCl3, 5 hours): 0.10 ± 0.0%
- Cellular interaction ([5]; GaCl3, 24 hours): 0.62 ± 0.0%
- Internalization ([5]; GaCl3, 24 hours): 0.16 ± 0.0%

Molecule: AGILKRW (Dengue virus 2; /note=“#PepH3 (PEP+)”)
- stability in blood and urine [1]: stable in the blood and urine
- Charge (number of positive residues) [2]: 2
- PI (isoelectric point) [2]: 11
- radioactivity in the brain ([3]; 140 μg (pepH1, pepH3) or 80 μg (pepH2), 2 min): 0.31% and 0.37%
- excreted [3, 8]: 36%
- brain uptake [3]: rapid brain uptake
- brain washout [3]: rapid brain washout
- BBB transmigration ([4]; 99mTc, 0.25 hours): 2.70 ± 0.0%
- overpass in the control (no cells) ([4]; 99mTc): 50%
- BBB transmigration ([4]; 99mTc, 5 hours): 9.16 ± 6.5%
- BBB transmigration ([4]; 99mTc, 5 hours, listed as pepH3): 20%
- BBB transmigration ([4]; 99mTc, 24 hours): 67.23 ± 1.2%
- BBB transmigration ([4]; 99mTc, 24 hours, listed as pepH3): about 70%
- BBB transmigration ([4]; GaCl3, 0.25 hours): 1.87 ± 0.3%
- BBB transmigration ([4]; GaCl3, 5 hours): 26.47 ± 0.4%
- BBB transmigration ([4]; GaCl3, 24 hours): 72.63 ± 0.7%
- affinity constant for POPC:POPS (1:4) relative to other lipid compositions [6]: 5 times
- Kp ± SD ([6]; Lipidic membrane POPC:POPS (1:4)): 1,558 and 1,558 ± 216
- Kp ± SD ([6]; Lipidic membrane POPC:POPS (3:2)): 455 ± 46
- Kp ± SD ([6]; Lipidic membrane POPC:POPS (4:1)): 324 and 342 ± 102
- where the radiopeptide is found in the uptake test (media, acid wash, lysate) ([5]; 99mTc): mainly remained in the incubation medium
- Cellular interaction ([5]; 99mTc, 0.25 hours): 1.50 ± 0.1%
- Internalization ([5]; 99mTc, 0.25 hours): 0.15 ± 0.1%
- Cellular interaction ([5]; 99mTc, 5 hours): 1.15 ± 0.1%
- Internalization ([5]; 99mTc, 5 hours): 0.15 ± 0.1%
- Cellular interaction ([5]; 99mTc, 24 hours): 0.60 ± 0.1%
- Internalization ([5]; 99mTc, 24 hours): 0.35 ± 0.2%
- Cellular interaction ([5]; GaCl3, 0.25 hours): 0.26 ± 0.0%
- Internalization ([5]; GaCl3, 0.25 hours): 0.03 ± 0.0%
- Cellular interaction ([5]; GaCl3, 5 hours): 0.73 ± 0.0%
- Internalization ([5]; GaCl3, 5 hours): 0.12 ± 0.0%
- Cellular interaction ([5]; GaCl3, 24 hours): 0.60 ± 0.1%
- Internalization ([5]; GaCl3, 24 hours): 0.30 ± 0.1%

B1: FC5: sdAb from the literature binding BBB receptors; positive control for BBB transmigration, SEQ ID NO: 112 (protein, listed as Lama glama)
VHH: ASEVQLQASGGGLVQAGGSLRLSCAASGFKITHYTMGWFRQAPGKEREFVSRITWGGDNTFYSNSVKGRFTISRDNAKNTVYLQMNSLKPEDTADYYCAAGSTSTATPLRVDYWGKGTQVTVSSLE
modifications: /note=“#FC5”
- inhibition of BAP42 fibrillization (ThT signal) [7]: do not inhibit fibrillization
